Measured values taken from article PMC4245941, “Timely binding of IHF and Fis to DARS2 regulates ATP–DnaA production and replication initiation” (Nucleic Acids Research, 2014).

Molecular target: the molecule itself
Assay: native gel or EMSA; DnaA (ADP or ATP form) incubated at 30°C for 5 min in dissociation buffer (20 mM Tris-HCl pH 7.5, 100 mM potassium glutamate, 10 mM magnesium acetate, 2 mM ATP) with DARS2ΔRight or DARS2ΔRight/subFBS1 DNA (15 fmol) and poly (dI-dC), 5% PAGE; DnaA multimers form on the DNA; without or with IHF and Fis

B1: DnaA (wild type) (natural protein, Escherichia coli, UniProt P03004 1-467, looked up)
chain: MSLSLWQQCLARLQDELPATEFSMWIRPLQAELSDNTLALYAPNRFVLDWVRDKYLNNINGLLTSFCGADAPQLRFEVGTKPVTQTPQAAVTSNVAAPAQVAQTQPQRAAPSTRSGWDNVPAPAEPTYRSNVNVKHTFDNFVEGKSNQLARAAARQVADNPGGAYNPLFLYGGTGLGKTHLLHAVGNGIMARKPNAKVVYMHSERFVQDMVKALQNNAIEEFKRYYRSVDALLIDDIQFFANKERSQEEFFHTFNALLEGNQQIILTSDRYPKEINGVEDRLKSRFGWGLTVAIEPPELETRVAILMKKADENDIRLPGEVAFFIAKRLRSNVRELEGALNRVIANANFTGRAITIDFVREALRDLLALQEKLVTIDNIQKTVAEYYKIKVADLLSKRRSRSVARPRQMAMALAKELTNHSLPEIGDAFGGRDHTTVLHACRKIEQLREESHDIKEDFSNLIRTLSS
notes: DnaA, chromosomal replication initiator protein, Escherichia coli, wild type; Used loaded with ADP or ATP (not covalent); also called ADP–DnaA; ATP–DnaA
binding result: binds
